Measurements: PMC10425521, “Crosstalk between glucocorticoid and mineralocorticoid receptors boosts glucocorticoid-induced killing of multiple myeloma cells” (Cellular and Molecular Life Sciences: CMLS, 2023)

Tests used:
[1] = biological target: T1, LgBiT-MR (mineralocorticoid receptor with LgBiT at the N-terminus) (UniProt P08235 1-984); assay: split reporter (BiFC, NanoBiT); NanoBiT in intact HEK293T cells, Dex (10^-6 M) added after baseline, luminescence over 60 min, normalised to baseline and given as fold versus solvent; conditions: partners not purified
T1 construct: mineralocorticoid receptor (MR, NR3C2); NanoBiT fusion; also called pLgBiT-MR; source: HEK293T, transfected (calcium phosphate), in intact cells; not shown: LgBiT, N-terminal, kept
T1 sequence (looked up): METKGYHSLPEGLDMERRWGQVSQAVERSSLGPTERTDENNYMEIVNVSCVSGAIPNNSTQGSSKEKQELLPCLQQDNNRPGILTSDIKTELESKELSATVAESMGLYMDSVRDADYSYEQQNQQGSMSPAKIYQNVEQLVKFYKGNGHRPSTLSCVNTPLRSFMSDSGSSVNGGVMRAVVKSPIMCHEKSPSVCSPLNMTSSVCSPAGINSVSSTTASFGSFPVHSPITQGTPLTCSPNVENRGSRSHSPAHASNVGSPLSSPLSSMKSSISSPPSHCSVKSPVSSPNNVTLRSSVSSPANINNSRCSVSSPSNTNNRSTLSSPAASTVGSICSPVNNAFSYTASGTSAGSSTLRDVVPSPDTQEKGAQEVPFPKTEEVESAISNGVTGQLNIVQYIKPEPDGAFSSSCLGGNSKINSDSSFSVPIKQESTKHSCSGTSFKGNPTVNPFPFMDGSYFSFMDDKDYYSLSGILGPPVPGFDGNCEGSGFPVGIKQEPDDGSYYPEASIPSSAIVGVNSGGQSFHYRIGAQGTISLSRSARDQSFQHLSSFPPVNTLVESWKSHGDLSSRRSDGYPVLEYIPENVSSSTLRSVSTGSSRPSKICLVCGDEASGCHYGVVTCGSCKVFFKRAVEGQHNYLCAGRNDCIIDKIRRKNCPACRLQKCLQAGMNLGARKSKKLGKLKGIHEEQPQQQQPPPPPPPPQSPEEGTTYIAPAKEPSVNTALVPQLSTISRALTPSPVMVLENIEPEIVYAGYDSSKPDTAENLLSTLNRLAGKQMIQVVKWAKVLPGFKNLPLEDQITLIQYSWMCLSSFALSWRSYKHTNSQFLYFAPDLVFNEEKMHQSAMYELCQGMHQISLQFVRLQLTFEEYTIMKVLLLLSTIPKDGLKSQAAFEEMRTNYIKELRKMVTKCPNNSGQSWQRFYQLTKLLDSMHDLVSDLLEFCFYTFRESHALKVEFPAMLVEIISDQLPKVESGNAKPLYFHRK

[2] = biological target: T1, LgBiT-MR (mineralocorticoid receptor …); assay: split reporter (BiFC, NanoBiT); NanoBiT in intact HEK293T cells, Dex (10^-6 M) together with Spi (10^-5 M) added after baseline, luminescence over 60 min, normalised to baseline and given as fold versus solvent; conditions: partners not purified

fold induction of NanoBiT luminescence versus solvent (with Dex) [1]: ~8 fold
fold induction of NanoBiT luminescence versus solvent (with Dex and Spi) [2]: ~6 fold
B1: GR-SmBiT (glucocorticoid receptor with SmBiT at the C-terminus) (receptor, UniProt P04150 1-777, looked up)
chain: MDSKESLTPGREENPSSVLAQERGDVMDFYKTLRGGATVKVSASSPSLAVASQSDSKQRRLLVDFPKGSVSNAQQPDLSKAVSLSMGLYMGETETKVMGNDLGFPQQGQISLSSGETDLKLLEESIANLNRSTSVPENPKSSASTAVSAAPTEKEFPKTHSDVSSEQQHLKGQTGTNGGNVKLYTTDQSTFDILQDLEFSSGSPGKETNESPWRSDLLIDENCLLSPLAGEDDSFLLEGNSNEDCKPLILPDTKPKIKDNGDLVLSSPSNVTLPQVKTEKEDFIELCTPGVIKQEKLGTVYCQASFPGANIIGNKMSAISVHGVSTSGGQMYHYDMNTASLSQQQDQKPIFNVIPPIPVGSENWNRCQGSGDDNLTSLGTLNFPGRTVFSNGYSSPSMRPDVSSPPSSSSTATTGPPPKLCLVCSDEASGCHYGVLTCGSCKVFFKRAVEGQHNYLCAGRNDCIIDKIRRKNCPACRYRKCLQAGMNLEARKTKKKIKGIQQATTGVSQETSENPGNKTIVPATLPQLTPTLVSLLEVIEPEVLYAGYDSSVPDSTWRIMTTLNMLGGRQVIAAVKWAKAIPGFRNLHLDDQMTLLQYSWMFLMAFALGWRSYRQSSANLLCFAPDLIINEQRMTLPCMYDQCKHMLYVSSELHRLQVSYEEYLCMKTLLLLSSVPKDGLKSQELFDEIRMTYIKELGKAIVKREGNSSQNWQRFYQLTKLLDSMHEVVENLLNYCFQTFLDKTMSIEFPEMLAEIITNQIPKYSNGNIKKLLFHQK
notes: glucocorticoid receptor (GR, NR3C1); NanoBiT fusion; also called pGR-SmBiT; source: HEK293T, transfected (calcium phosphate), in intact cells; not shown: SmBiT, C-terminal, kept
